Assay [1] has as its target prostate specific antigen (PSA) (UniProt P07288). In words: silicon nanowire FET (p-type), antibody on the wire; f-PSA 8.5 pg/ml.
For assay [2] the target is unchanged. In words: silicon nanowire FET (p-type), antibody on the wire; f-PSA 850 pg/ml.
For assay [3] the target is unchanged. Kind of assay: silicon nanowire FET (p-type), antibody on the wire; f-PSA 0.85 pg/ml.
Assay [4] shares this target. Kind of assay: silicon nanowire FET (p-type), antibody on the wire; f-PSA 1700 pg/ml.
The target in assay [5] is PSA-alpha-1-antichymotrypsin (PSA-ACT) complex (UniProt P07288). In words: silicon nanowire FET (p-type), antibody on the wire; PSA-ACT 3.2 pg/ml.
The target is the same in assay [6]. In words: silicon nanowire FET (p-type), antibody on the wire; PSA-ACT 320 pg/ml.
Assay [7] has as its target prostate specific antigen (PSA) (UniProt P07288). In words: silicon nanowire FET (p-type), antibody on the wire; f-PSA 0.085 pg/ml.
Assay [8] has as its target PSA-alpha-1-antichymotrypsin (PSA-ACT) complex (UniProt P07288). Kind of assay: silicon nanowire FET (p-type), antibody on the wire; PSA-ACT 0.32 pg/ml.
For assay [9] the target is unchanged. Kind of assay: silicon nanowire FET (p-type), antibody on the wire; PSA-ACT 3200 pg/ml.
Assay [10] has the same target. Kind of assay: silicon nanowire FET (p-type); mixture of f-PSA 8.5, PSA-ACT 320 and free Ab1 1 x 10^7 pg/ml (f-PSA blocked by Ab1).
Assay [11] shares this target. Kind of assay: silicon nanowire FET (p-type); mixture of f-PSA 850, PSA-ACT 0.32 and free Ab1 1 x 10^7 pg/ml (f-PSA blocked by Ab1).
Assay [12] shares this target. In words: silicon nanowire FET (p-type); mixture of f-PSA 850, PSA-ACT 3200 and free Ab1 1 x 10^7 pg/ml (f-PSA blocked by Ab1).
The target is the same in assay [13]. In words: silicon nanowire FET (p-type); mixture of f-PSA 0.85, PSA-ACT 3200 and free Ab1 1 x 10^7 pg/ml (f-PSA blocked by Ab1).

Take “monoclonal antibody anti-ACT-PSA (AbII, clone PSA1, abcam Inc.)”: the Conductance Change, nS in [1] is 81 nS; in [2] it was 132 nS; in assay [3], 50 nS; in assay [4], 154 nS; in assay [5] it was 67 nS; in assay [6], 124 nS. Besides, the Conductance Change, nS in [7] turned out to be 10 nS; in [8] it was 19 nS; in assay [9] it was 143 nS; in assay [10], 118 nS; in assay [11] it was 15 nS; in assay [12] it was 140 nS. The Conductance Change, nS in assay [13] worked out at 138 nS.
